Experimental data as given in paper PMC12091997.

Legend:
[1] = molecular target: His6-tagged human GBP1 C589S (CaaX box mutant) (human) (UniProt P32455); assay: SEC; Superdex 200 10/300 GL on AKTA FPLC; 100 ug protein; 20 mM Tris (7.5), 140 mM NaCl, 2 mM MgCl2 with 200 uM GDP-AlF4- (transition state analogue); monomer to dimer
[2] = molecular target: tag-free recombinant human GBP1, farnesylated (human) (UniProt P32455); assay: cryo-EM structure; cryo-electron tomography (300 kV) with sub-tomogram averaging of tag-free GBP1 coat assembled on Stm ΔwaaG::pBAD-ftsZ OMVs/minicells in the presence of GTP; 12,858 particles; dimer mask and monomer mask

His6-tagged human GBP1 C589S (CaaX box mutant) (from UniProt P32455 1-592) (natural protein)
stoichiometry N [1]: 2

tag-free recombinant human GBP1, farnesylated (from UniProt P32455 1-592) (natural protein)
stoichiometry N [2]: 2
